The source of these data is patent publication US20180327494A1 (SUZHOU ALPHAMAB, published 2018).

For one assay, the target named is T1, Fc protein.
T1 construct: counter-screen antigen for the Fc moiety of PDL1-Fc
Description: ELISA, Fc protein coated, 100 ng dAb per well. (In an ELISA, binding on a coated surface is turned into a signal by an enzyme label.)

The target of assay [1] is T2, PDL1-Fc fusion protein (human).
T2 construct: expressed in CHO or HEK293 cells; also called Human PDL1-Fc; recombinant human PDL1-Fc
Put plainly: ELISA, ratio of OD on PDL1-Fc to OD on Fc protein.

The target of assay [2] is T2, PDL1-Fc fusion protein. Description: ELISA, ratio of OD on PDL1-Fc to OD of blank control.
Assay [3] addresses T2, PDL1-Fc fusion protein. Description: ELISA, PDL1-Fc coated, 100 ng dAb per well, anti-His detection.
The target of assay [4] is T2, PDL1-Fc fusion protein. Description: competitive ELISA, PDL1-Fc coated, 100 ng dAb and 10 ug PD1-Fc-Biotin (competitor); remaining PD1-Fc-Biotin signal.
Assay [5] concerns the target T2, PDL1-Fc fusion protein. Put plainly: SPR, BIAcore X100, PDL1-Fc on CM5 chip, antibody as analyte, 25 C. (In general: SPR reads the build-up and loss of mass on a sensor chip optically.)
Assay [6] deals with T2, PDL1-Fc fusion protein. Description: ELISA, dAb coated 0.5 ug/well, dilution series of PDL1-Fc, anti-human IgG-Fc-HRP.
Assay [7] has as its target T2, PDL1-Fc fusion protein. Description: competitive ELISA, PDL1-Fc coated, dilution series of antibody with 100 ug/mL PD1-Fc-Biotin (competitor).
For assay [8], the target named is T2, PDL1-Fc fusion protein. Put plainly: competitive ELISA: PDL1-Fc coated 0.5 µg/well, dilution series of the antibody with PD1-Fc-Biotin 100 µg/mL (blocked ligand), SA-HRP, OD405; the sheet labels it EC50, paragraph 198 calls it IC50; unit from the axis.
The target of assay [9] is T2, PDL1-Fc fusion protein. Put plainly: ELISA: plate coated with the single domain antibody 0.5 µg/well, dilution series of PDL1-Fc, anti-human IgG-Fc-HRP, OD405, four-parameter fit; unit from the axis 'Log Conc(ng/mL)', the concentration of PDL1-Fc.
A further assay concerns the target T3, Mouse PDL1-Fc protein (mouse).
T3 construct: expressed in HEK293 cells; also called mouse PDL1-Fc fusion protein; mice PDL1-Fc
Description: ELISA, mouse PDL1-Fc coated, anti-His detection.

The target of assay [10] is T4, human PDL1 protein on the cell membrane (human, UniProt Q9NZQ7 19-290).
T4 construct: whole, on cells; also used here for Raji-PDL1 cells and for native PDL1 on lung cancer tissue sections; also called Raji-PDL1
Put plainly: flow cytometry competition: 293-PDL1 cells, single domain antibody plus hPD-1-Fc-biotin 0.3 µg (blocked ligand), SA-PE; right panel. (In general: Flow cytometry measures light scatter and fluorescence of single cells or particles in a stream.)

B1: PDL1-87 dAb (VHH)
VHH: QVQLQESGGGSVQAGGSLKLSCAASGYIFSSCGMGWYRQAPGKERELVSTISSDGTTSYADSVKGRFTISQDNAKNTLYLQMNSLKTEDTAVYYCVADCPPIPEFTSCSGGYCLSGDYWGQGTQVTVSS
notes: camel heavy chain single domain antibody expressed in E. coli, purified on nickel; also called antibody No. 87; not shown: His tag from expression vector PET32b
As for B1, in the assay with Fc protein, the “OD (against Fc)” value is 0.124 OD (405 nm). For the same molecule, the “OD (PDL1/Fc)” value with PDL1-Fc fusion protein [1] is 18 ratio. In addition, the “OD (PDL1/blank)” value with PDL1-Fc fusion protein [2] worked out at 41.4 ratio. Besides, the “OD (against PDL1)” value in the assay with PDL1-Fc fusion protein [3] was 2.24 OD (405 nm). In addition, the OD with PDL1-Fc fusion protein [4] was 0.897 OD (405 nm).

B2: PDL1-38 dAb (VHH)
VHH: QVQLQESGGGSVQAGGSLRLSCAVSGFISSRRCMGWFRQAPGKERVGVANITGTGNTYLADSVKGRFTISQNNAKSTVYLQMNSLKPEDTAMYYCAADSFPTCTVVASSGAFQYWGQGTQVTVSS
notes: camel heavy chain single domain antibody expressed in E. coli, purified on nickel; also called antibody No. 38; not shown: His tag from expression vector PET32b
Consider B2, for which the “OD (against Fc)” value with Fc protein was 0.065 OD (405 nm). Further, in the assay with PDL1-Fc fusion protein [1], the “OD (PDL1/Fc)” value was 30.5 ratio. Moreover, the “OD (PDL1/blank)” value with PDL1-Fc fusion protein [2] was determined as 36.7 ratio. The “OD (against PDL1)” value in the assay with PDL1-Fc fusion protein [3] is 1.98 OD (405 nm).

B3: PDL1-27 dAb (VHH)
VHH: QVQLQESGGGSVQAGGSLRLSCAASGNISSRRCMAWFRQAPGKERERVANILTTTGNTYLADSVKGRFTISQNNAKSTVYLQMNSLKPEDTAMYYCAADSFHDPTCTVVASSGAFQYWGQGTQVTVSS
notes: camel heavy chain single domain antibody expressed in E. coli, purified on nickel; also called antibody No. 27; not shown: His tag from expression vector PET32b
As for B3, in the assay with Fc protein, the “OD (against Fc)” value was 0.08 OD (405 nm). In addition, the “OD (PDL1/Fc)” value with PDL1-Fc fusion protein [1] stood at 32.8 ratio. The “OD (PDL1/blank)” value with PDL1-Fc fusion protein [2] stood at 48.5 ratio. For the same molecule, the “OD (against PDL1)” value with PDL1-Fc fusion protein [3] was 2.62 OD (405 nm). In the assay with PDL1-Fc fusion protein [5], binding was characterised by a dissociation constant (Kd) of 0.771 nM. The concentration giving a half-maximal response (EC50) (commonly the midpoint of the concentration-response curve) with PDL1-Fc fusion protein [6] is around 0.005 mg/L; in the assay with PDL1-Fc fusion protein [9], 0.00568 mg/L. Besides, the IC50 (as a rule, the concentration at which inhibition is half-maximal) in the assay with PDL1-Fc fusion protein [7] is around 0.917 mg/L; in the assay with PDL1-Fc fusion protein [8], 0.917 mg/L. Moreover, in the assay with PDL1-Fc fusion protein [4], the OD was 0.161 OD (405 nm).

B4: PDL1-81 dAb (VHH)
VHH: QVQLQESGGGSVQAGGSLRLSCAASGNIIRVRCMAWFRQAPGKERERGPNILTTTISTYLADSVKGRFTISQNNAKSTVYLQMNSLKPEDTAMYYCAADSFGYPTCPGPASSGAFQYWGQGTQVTVSS
notes: camel heavy chain single domain antibody expressed in E. coli, purified on nickel; also called antibody No. 81; not shown: His tag from expression vector PET32b
With B4, the “OD (against Fc)” value in the assay with Fc protein was 0.085 OD (405 nm). The “OD (PDL1/Fc)” value with PDL1-Fc fusion protein [1] was found to be 31.5 ratio. The “OD (PDL1/blank)” value with PDL1-Fc fusion protein [2] was 49.6 ratio. Besides, in the assay with PDL1-Fc fusion protein [3], the “OD (against PDL1)” value is 2.68 OD (405 nm). Further, the Kd (in general, the free concentration of one partner at which half of the binding sites on the other are occupied at equilibrium, for simple one-to-one binding) in the assay with PDL1-Fc fusion protein [5] was 0.548 nM. Further, in the assay with PDL1-Fc fusion protein [4], the OD was 0.429 OD (405 nm).

B5: PDL1-69 dAb (VHH)
VHH: QVQLQESGGGSVQAGGSLRLSCAVQRNISSSYCMAWFRQAPGKQRERVDKILTTPGNTYLADSVKGRFTISQNNAKSTVYLQMNSLKPEDTAMYYCAADSFQKPTCTVVASWPAFQYWGQGTQVTVSS
notes: camel heavy chain single domain antibody expressed in E. coli, purified on nickel; also called antibody No. 69; not shown: His tag from expression vector PET32b
As for B5, the “OD (against Fc)” value with Fc protein was 0.165 OD (405 nm). Moreover, the “OD (PDL1/Fc)” value with PDL1-Fc fusion protein [1] amounted to 7.1 ratio. For the same molecule, the “OD (PDL1/blank)” value with PDL1-Fc fusion protein [2] is 21.7 ratio. Also, in the assay with PDL1-Fc fusion protein [3], the “OD (against PDL1)” value is 1.17 OD (405 nm).

B6: PDL1-10 dAb (VHH)
VHH: QVQLQESGGGSVQAGGSLRLSCAASGNIVSSYCMGWFRQAPGKERVGVAAIDSDGTTKYADSMKGRFTISKDNAKNTLDLQMNSLKPEDTAMYYCVARLNCPGPVDWVPMFPYRGQGTQVTVSS
notes: camel heavy chain single domain antibody expressed in E. coli, purified on nickel; also called antibody No. 10; not shown: His tag from expression vector PET32b
Regarding B6, the binding result in the assay with Mouse PDL1-Fc protein was “no binding (tested: 100 ng per well)”; in [10] it was “binds”. In addition, in the assay with Fc protein, the “OD (against Fc)” value is 0.099 OD (405 nm). The “OD (PDL1/Fc)” value with PDL1-Fc fusion protein [1] was 8.63 ratio. For the same molecule, the “OD (PDL1/blank)” value with PDL1-Fc fusion protein [2] was 15.8 ratio. In addition, the “OD (against PDL1)” value with PDL1-Fc fusion protein [3] was 0.854 OD (405 nm). Besides, the OD with PDL1-Fc fusion protein [4] is 0.126 OD (405 nm).

B7: PDL1-94 dAb (VHH)
VHH: QVQLQESGGGSVQAGGSLRLSCAASLNIFSSYCMGWFRQAPGKQRVGVATIDSDGTTRYVDSVKGRFTISKDNAKNTLDLQMNSLKPEDTAMYYCAARLNCPGPVDWVPMFPYRGQGTQVTVSS
notes: camel heavy chain single domain antibody expressed in E. coli, purified on nickel; also called antibody No. 94; not shown: His tag from expression vector PET32b
On to B7, for which the “OD (against Fc)” value with Fc protein is 0.085 OD (405 nm). The “OD (PDL1/Fc)” value with PDL1-Fc fusion protein [1] is 10.3 ratio. Also, the “OD (PDL1/blank)” value in the assay with PDL1-Fc fusion protein [2] was found to be 16.2 ratio. Moreover, the “OD (against PDL1)” value in the assay with PDL1-Fc fusion protein [3] is 0.875 OD (405 nm).
